T1: hANG2-Fc (human, UniProt O15123)
T1 chain: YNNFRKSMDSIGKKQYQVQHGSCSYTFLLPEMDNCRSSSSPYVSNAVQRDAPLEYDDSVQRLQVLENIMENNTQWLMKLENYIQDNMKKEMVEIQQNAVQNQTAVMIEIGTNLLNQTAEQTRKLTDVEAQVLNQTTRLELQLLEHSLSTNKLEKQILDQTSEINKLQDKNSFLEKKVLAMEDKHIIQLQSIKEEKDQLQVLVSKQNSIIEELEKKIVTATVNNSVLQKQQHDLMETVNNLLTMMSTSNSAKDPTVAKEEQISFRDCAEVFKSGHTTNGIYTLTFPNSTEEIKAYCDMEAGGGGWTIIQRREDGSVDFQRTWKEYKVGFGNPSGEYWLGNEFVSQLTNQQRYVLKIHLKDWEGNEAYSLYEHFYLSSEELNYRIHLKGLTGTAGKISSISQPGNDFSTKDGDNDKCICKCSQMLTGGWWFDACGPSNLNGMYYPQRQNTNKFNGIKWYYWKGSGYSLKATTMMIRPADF

T2: hANG2-His (human, UniProt O15123)
T2 chain: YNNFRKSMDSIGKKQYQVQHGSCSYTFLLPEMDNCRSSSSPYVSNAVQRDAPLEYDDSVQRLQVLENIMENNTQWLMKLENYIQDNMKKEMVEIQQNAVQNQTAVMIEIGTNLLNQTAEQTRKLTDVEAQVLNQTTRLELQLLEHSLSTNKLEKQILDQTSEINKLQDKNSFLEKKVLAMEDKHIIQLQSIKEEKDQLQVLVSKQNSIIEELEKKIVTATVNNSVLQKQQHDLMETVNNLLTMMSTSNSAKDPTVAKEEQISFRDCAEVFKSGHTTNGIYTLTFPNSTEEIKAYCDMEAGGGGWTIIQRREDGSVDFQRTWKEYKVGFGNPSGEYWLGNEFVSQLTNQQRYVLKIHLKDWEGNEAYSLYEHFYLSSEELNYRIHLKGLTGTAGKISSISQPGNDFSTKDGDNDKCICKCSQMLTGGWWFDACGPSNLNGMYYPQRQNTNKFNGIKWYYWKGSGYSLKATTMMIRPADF

T3: hANG1-Fc (human, UniProt Q15389)
T3 chain: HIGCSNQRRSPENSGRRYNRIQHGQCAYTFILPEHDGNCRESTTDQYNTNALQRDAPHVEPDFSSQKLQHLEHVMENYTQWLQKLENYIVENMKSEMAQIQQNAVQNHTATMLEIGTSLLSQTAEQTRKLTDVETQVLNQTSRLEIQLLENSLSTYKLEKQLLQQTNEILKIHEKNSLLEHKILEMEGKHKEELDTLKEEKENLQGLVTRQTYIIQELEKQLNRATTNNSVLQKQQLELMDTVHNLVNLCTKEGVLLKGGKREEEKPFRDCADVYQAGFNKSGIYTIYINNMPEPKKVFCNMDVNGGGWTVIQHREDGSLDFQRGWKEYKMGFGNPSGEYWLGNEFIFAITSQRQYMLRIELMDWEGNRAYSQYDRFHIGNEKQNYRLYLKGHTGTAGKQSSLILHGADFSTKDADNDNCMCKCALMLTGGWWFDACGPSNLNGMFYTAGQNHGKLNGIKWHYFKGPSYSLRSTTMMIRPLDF

T4: hANG2-His (human, UniProt O15123 19-496, limits assumed)
T4 construct: also called 人源ANG2; ANGPT2; not shown: C-terminal His tag
T4 sequence (looked up): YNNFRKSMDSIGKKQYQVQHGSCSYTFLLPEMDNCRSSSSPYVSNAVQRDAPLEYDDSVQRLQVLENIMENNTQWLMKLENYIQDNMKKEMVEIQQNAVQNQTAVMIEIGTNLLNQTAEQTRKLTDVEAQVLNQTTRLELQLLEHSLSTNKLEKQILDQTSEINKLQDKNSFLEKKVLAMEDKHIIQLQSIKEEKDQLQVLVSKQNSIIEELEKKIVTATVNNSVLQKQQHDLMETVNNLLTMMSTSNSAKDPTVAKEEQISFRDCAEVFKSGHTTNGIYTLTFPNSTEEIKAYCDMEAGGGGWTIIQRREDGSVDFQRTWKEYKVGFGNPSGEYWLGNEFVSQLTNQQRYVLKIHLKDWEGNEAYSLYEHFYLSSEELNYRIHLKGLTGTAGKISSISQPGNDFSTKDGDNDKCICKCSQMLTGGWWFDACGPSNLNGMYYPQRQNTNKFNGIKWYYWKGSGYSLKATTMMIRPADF


Legend:
hANG2-Fc [1] = biological target: T1, hANG2-Fc; experiment: competition ELISA (TIE2 blocking)
hANG2-His [2] = biological target: T2, hANG2-His; experiment: ELISA
hANG2-Fc [3] = biological target: T1, hANG2-Fc; experiment: FACS competition (TIE2-HEK293)
hANG1-Fc = biological target: T3, hANG1-Fc; experiment: ELISA
hANG2-His [4] = biological target: T2, hANG2-His; experiment: BLI
hANG2-His [5] = biological target: T4, hANG2-His; experiment: BLI (Gator), antibody captured on sensor, hANG2-His 100/50/25 nM
hANG2-His [6] = biological target: T4, hANG2-His; experiment: as above; remark: listed apart in the source

Binder	IC50 (hANG2-Fc [1])	EC50 (hANG2-His [2])	IC50 (hANG2-Fc [3])	binding result (hANG1-Fc)	Kd (hANG2-His [4])	Kd (hANG2-His [5])	koff (hANG2-His [5])	kon (hANG2-His [5])	fold affinity against nesvacumab (hANG2-His [6])
nesvacumab (antibody, V domains shown) VH: EVQLVESGGGLVQPGGSLRLSCAASGFTFSSYDIHWVRQATGKGLEWVSAIGPAGDTYYPGSVKGRFTISRENAKNSLYLQMNSLRAGDTAVYYCARGLITFGGLIAPFDYWGQGTLVTVSS VL: EIVLTQSPGTLSLSPGERATLSCRASQSVSSTYLAWYQQKPGQAPRLLIYGASSRATGIPDRFSGSGSGTDFTLTISRLEPEDFAVYYCQHYDNSQTFGQGTKVEIK	1.58 µg/mL	0.442 µg/mL	0.362 µg/mL	no binding	1.17 nM				
抗体78A74-25 (antibody, IgG1, V domains shown) VH: QVQLVESGGGLVKPGGSLRLSCAASGFTFSSYSMNWVRQAPGKGLEWVAVISYDGSNKYYADSVKGRFTISRDNSKNTLYLQMNSLRAEDTAVYYCAKATLDGYTAGYYYGMDVWGQGTTVTVSS VL: EIVLTQSPATLSLSPGERATLSCRASQSVSSYLAWYQQKPGQAPRLLIYDASNRATGIPARFSGSGSGTDFTLTISSLEPEDFAVYYCQQRSNWPPELYFGQGTKVEIK						0.828 nM	0.000161 s⁻¹	194000 M⁻¹ s⁻¹	~2 fold
抗体78A74-35 (antibody, IgG1, V domains shown) VH: QVQLVESGGGLVKPGGSLRLSCAASGFTFSSYSMNWVRQAPGKGLEWVAVISYDGSNKYYADSVKGRFTISRDNSKNTLYLQMNSLRAEDTAVYYCAKATLDGYTAGYYYGMDVWGQGTTVTVSS VL: EIVLTQSPATLSLSPGERATLSCRASQSVSSYLAWYQQKPGQAPRLLIYDASNRATGIPARFSGSGSGTDFTLTISSLEPEDFAVYYCQQRSNWPPAMTFGQGTKVEIK						1.52 nM	0.000284 s⁻¹	187000 M⁻¹ s⁻¹	
17 (antibody, V domains shown) VH: EVQLVESGGGVVKPGGSLRLSCAASGFTFNKYTINWVRQTPGKGLELVADISSGGDYVNYADSVKGRFTISRDNAKDSVYLLMNGLRAEDTAVYYCARDALTYSNNWLDSWGQGTLVTVSS VL: DIQLTQSPSFLSASVGDRVTITCRASQGISSYLAWYQQKPGKAPKLLIYAASTLQSGVPSRFSGGGYGTDFTLTISSLQPEDFATYYCQQFESYPLTFGGGTRLEIK	0.547 µg/mL	0.12 µg/mL	0.323 µg/mL	no binding					

Next, values leading:

IC50 (hANG2-Fc [1])	EC50 (hANG2-His [2])	IC50 (hANG2-Fc [3])	binding result (hANG1-Fc)	Kd (hANG2-His [4])	Kd (hANG2-His [5])	koff (hANG2-His [5])	kon (hANG2-His [5])	fold affinity against nesvacumab (hANG2-His [6])	Binder
					0.544 nM	0.000103 s⁻¹	189000 M⁻¹ s⁻¹	~2 fold	抗体78A74-7 (antibody, IgG1, V domains shown) VH: QVQLVESGGGLVKPGGSLRLSCAASGFTFSSYSMNWVRQAPGKGLEWVAVISYDGSNKYYADSVKGRFTISRDNSKNTLYLQMNSLRAEDTAVYYCAKATLDGYTAGYYYGMDVWGQGTTVTVSS VL: EIVLTQSPATLSLSPGERATLSCRASQSVSSYLAWYQQKPGQAPRLLIYDASNRATGIPARFSGSGSGTDFTLTISSLEPEDFAVYYCQLMSNWPPEWTFGQGTKVEIK
					0.687 nM	0.000132 s⁻¹	192000 M⁻¹ s⁻¹	~2 fold	抗体78A74-21 (antibody, IgG1, V domains shown) VH: QVQLVESGGGLVKPGGSLRLSCAASGFTFSSYSMNWVRQAPGKGLEWVAVISYDGSNKYYADSVKGRFTISRDNSKNTLYLQMNSLRAEDTAVYYCAKETLDGYTAGYYYGMDVWGQGTTVTVSS VL: EIVLTQSPATLSLSPGERATLSCRASQSVGSYLAWYQQKPGQAPRLLIYDASNRATGIPARFSGSGSGTDFTLTISSLEPEDFAVYYCQQRSNGPPEWTFGQGTKVEIK
					1.32 nM	0.000263 s⁻¹	200000 M⁻¹ s⁻¹		抗体78A74-36 (antibody, IgG1, V domains shown) VH: QVQLVESGGGLVKPGGSLRLSCAASGFTFSSYSMNWVRQAPGKGLEWVAVISYDGSNKYYADSVKGRFTISRDNSKNTLYLQMNSLRAEDTAVYYCAKATLDGYTAGYYYGMDVWGQGTTVTVSS VL: EIVLTQSPATLSLSPGERATLSCRASQSVSSYLAWYQQKPGQAPRLLIYDASNRATGIPARFSGSGSGTDFTLTISSLEPEDFAVYYCQQRTMWPPEWTFGQGTKVEIK

Source: patent publication CN116178540A (SANYOU BIO INC, dated 2023)
